± gives the standard deviation of the averaged measurements.

The series in a line: total protein half-life in vivo (active degradation + dilution); higher = more stable protein.
The mark [1] stands for this setting: E. coli NCM3722 delta-clpP delta-lon delta-hslV, growth: N-lim chemostat, doubling time 6 h.
Where [2] appears, read: wild type E. coli NCM3722, growth: C-lim chemostat, doubling time 6 h.
Setting [3] is: wild type E. coli NCM3722, growth: C-lim chemostat, doubling time 12 h.
Where [4] appears, read: E. coli NCM3722 delta-clpP, growth: N-lim chemostat, doubling time 6 h.
The mark [5] stands for this setting: E. coli NCM3722 delta-lon, growth: N-lim chemostat, doubling time 6 h.
Where [6] appears, read: E. coli NCM3722 delta-smpB, growth: N-lim chemostat, doubling time 6 h.
[7] abbreviates: wild type E. coli NCM3722, growth: C-lim chemostat, doubling time 3 h.
Setting [8] is: wild type E. coli NCM3722, growth: N-lim chemostat, doubling time 6 h.
The mark [9] stands for this setting: wild type E. coli NCM3722, growth: N-lim chemostat, doubling time 12 h.
[10] abbreviates: wild type E. coli NCM3722, growth: P-lim chemostat, doubling time 12 h.
Setting [11] is: E. coli NCM3722 delta-hslV, growth: N-lim chemostat, doubling time 6 h.
The mark [12] stands for this setting: wild type E. coli NCM3722, growth: P-lim chemostat, doubling time 6 h.

For “MKWFNTLSHNRWLEQETDRIFDFGKNSVVPTGFGWLGNKGQIKEEMGTHLWITARMLHVYSVAAAMGRPGAYSLVDHGIKAMNGALRDKKYGGWYACVNDEGVVDASKQGYQHFFALLGAASAVTTGHPEARKLLDYTIEIIEKYFWSEEEQMCLESWDEAFSKTEEYRGGNANMHAVEAFLIVYDVTHDKKWLDRAIRVASVIIHDVARNNHYRVNEHFDTQWNPLPDYNKDNPAHRFRAFGGTPGHWIEWGRLMLHIHAALEARCEQPPAWLLEDAKGLFNATVRDAWAPDGADGIVYTVDWEGKPVVRERVRWPIVEAMGTAYALYTVTGDRQYETWYQTWWEYCIKYLMDYENGSWWQELDADNKVTTKVWDGKQDIYHLLHCLVIPRIPLAPGMAPAVAAGLLDINAK”, the “total protein half-life in vivo” value was determined as 7.17 h under setting [1], 4.37 h under setting [2] and 5.87 h under setting [3].
On to “MVISIRRSRHEEGEELVAIWCRSVDATHDFLSAEYRTELEDLVRSFLPEAPLWVAVNERDQPVGFMLLSGQHMDALFIDPDVRGCGVGRVLVEHALSMAPELTTNVNEQNEQAVGFYKKVGFKVTGRSEVDDLGKPYPLLNLAYVGA”, for which the “total protein half-life in vivo” value under setting [1] is 3.78 h.
For “MIKVLIVDDEPLARENLRVFLQEQSDIEIVGECSNAVEGIGAVHKLRPDVLFLDIQMPRISGLEMVGMLDPEHRPYIVFLTAFDEYAIKAFEEHAFDYLLKPIDEARLEKTLARLRQERSKQDVSLLPENQQALKFIPCTGHSRIYLLQMKDVAFVSSRMSGVYVTSHEGKEGFTELTLRTLESRTPLLRCHRQYLVNLAHLQEIRLEDNGQAELILRNGLTVPVSRRYLKSLKEAIGL [P0AFT5]”, the “total protein half-life in vivo” value reads like this: under setting [1], 5.88 h; under setting [4], 4.54 ± 0.31 h; under setting [5], 5.56 h; under setting [6], 3.83 h; under setting [7], 3.04 ± 0.45 h; under setting [2], 5.55 ± 0.23 h. Also, the “total protein half-life in vivo” value under setting [8] worked out at 5.02 ± 0.13 h, the “total protein half-life in vivo” value under setting [9] was determined as 7.03 ± 0.46 h and the “total protein half-life in vivo” value under setting [10] was found to be 10.1 ± 0.16 h.
As for “MKSVLKVSLAALTLAFAVSSHAADKKLVVATDTAFVPFEFKQGDKYVGFDVDLWAAIAKELKLDYELKPMDFSGIIPALQTKNVDLALAGITITDERKKAIDFSDGYYKSGLLVMVKANNNDVKSVKDLDGKVVAVKSGTGSVDYAKANIKTKDLRQFPNIDNAYMELGTNRADAVLHDTPNILYFIKTAGNGQFKAVGDSLEAQQYGIAFPKGSDELRDKVNGALKTLRENGTYNEIYKKWFGTEPK [P0AEQ3]”, the “total protein half-life in vivo” value turned out to be 4.537 ± 0.04 h under setting [1]; 6.03 ± 2.1 h under setting [4]; 6.84 ± 0.17 h under setting [11]; 6.824 ± 0.065 h under setting [5]; 6.44 ± 0.68 h under setting [6]; 3.38 ± 0.19 h under setting [7]. For the same sequence, the “total protein half-life in vivo” value was found to be 6.48 ± 0.26 h under setting [2]; 11.8 ± 1.3 h under setting [3]; 6.43 ± 0.32 h under setting [8]; 13.1 ± 0.91 h under setting [9]; 6.13 ± 0.34 h under setting [12]; 14.08 ± 0.14 h under setting [10].
Turning to “MSKKYIIGIDGGSQSTKVVMYDLEGNVVCEGKGLLQPMHTPDADTAEHPDDDLWASLCFAGHDLMSQFAGNKEDIVGIGLGSIRCCRALLKADGTPAAPLISWQDARVTRPYEHTNPDVAYVTSFSGYLTHRLTGEFKDNIANYFGQWPVDYKSWAWSEDAAVMDKFNIPRHMLFDVQMPGTVLGHITPQAALATHFPAGLPVVCTTSDKPVEALGAGLLDDETAVISLGTYIALMMNGKALPKDPVAYWPIMSSIPQTLLYEGYGIRKGMWTVSWLRDMLGESLIQDARAQDLSPEDLLNKKASCVPPGCNGLMTVLDWLTNPWEPYKRGIMIGFDSSMDYAWIYRSILESVALTLKNNYDNMCNEMNHFAKHVIITGGGSNSDLFMQIFADVFNLPARRNAINGCASLGAAINTAVGLGLYPDYATAVDNMVRVKDIFIPIESNAKRYDAMNKGIFKDLTKHTDVILKKSYEVMHGELGNVDSIQSWSNA”, the “total protein half-life in vivo” value under setting [1] turned out to be 2.5 h; the “total protein half-life in vivo” value under setting [7] was found to be 2.855 ± 0.0047 h; the “total protein half-life in vivo” value under setting [2] amounted to 4.03 ± 0.54 h; the “total protein half-life in vivo” value under setting [3] stood at 8.14 ± 1.2 h; the “total protein half-life in vivo” value under setting [10] worked out at 2.92 h.
In the case of “MNIRRKNRLWIACAVLAGLALTIGLVLYALRSNIDLFYTPGEILYGKRETQQMPEVGQRLRVGGMVMPGSVQRDPNSLKVTFTIYDAEGSVDVSYEGILPDLFREGQGVVVQGELEKGNHILAKEVLAKHDENYTPPEVEKAMEANHRRPASVYKDPAS”, the “total protein half-life in vivo” value runs as follows: under setting [1], 5.21 ± 0.82 h; under setting [4], 4.46 h; under setting [11], 4.36 ± 0.36 h; under setting [5], 4.62 ± 0.13 h; under setting [6], 4.65 ± 0.1 h; under setting [7], 2.91 ± 0.059 h. Further, the “total protein half-life in vivo” value was found to be 6.09 ± 0.43 h under setting [2]; 8.92 ± 0.19 h under setting [3]; 4.31 ± 0.63 h under setting [8]; 9.42 ± 2.7 h under setting [9]; 4.67 h under setting [12]; 10.05 ± 0.046 h under setting [10].
In the case of “MAQIDFRKKINWHRRYRSPQGVKTEHEILRIFESDRGRIINSPAIRRLQQKTQVFPLERNAAVRTRLTHSMEVQQVGRYIAKEILSRLKELKLLEAYGLDELTGPFESIVEMSCLMHDIGNPPFGHFGEAAINDWFRQRLHPEDAESQPLTDDRCSVAALRLRDGEEPLNELRRKIRQDLCHFEGNAQGIRLVHTLMRMNLTWAQVGGILKYTRPAWWRGETPETHHYLMKKPGYYLSEEAYIARLRKELNLALYSRFPLTWIMEAADDISYCVADLEDAVEKRIFTVEQLYHHLHEAWGQHEKGSLFSLVVENAWEKSRSNSLSRSTEDQFFMYLRVNTLNKLVPYAAQRFIDNLPAIFAGTFNHALLEDASECSDLLKLYKNVAVKHVFSHPDVERLELQGYRVISGLLEIYRPLLSLSLSDFTELVEKERVKRFPIESRLFHKLSTRHRLAYVEAVSKLPSDSPEFPLWEYYYRCRLLQDYISGMTDLYAWDEYRRLMAVEQ”, the “total protein half-life in vivo” value is 5.23 ± 0.2 h under setting [1]; 5.726 ± 0.025 h under setting [4]; 6.52 ± 1.8 h under setting [11]; 5.63 ± 0.46 h under setting [5]; 5.16 ± 0.065 h under setting [6]; 3.281 ± 0.016 h under setting [7]. For the same sequence, the “total protein half-life in vivo” value is, setting by setting: under setting [2], 6.17 ± 0.39 h; under setting [3], 11.6 ± 0.46 h; under setting [8], 6.14 ± 1.6 h; under setting [9], 11 ± 0.68 h; under setting [12], 5.52 ± 0.37 h; under setting [10], 12.2 ± 0.22 h.
For “MSTPDNHGKKAPQFAAFKPLTTVQNANDCCCDGACSSTPTLSENVSGTRYSWKVSGMDCAACARKVENAVRQLAGVNQVQVLFATEKLVVDADNDIRAQVESALQKAGYSLRDEQAAEEPQASRLKENLPLITLIVMMAISWGLEQFNHPFGQLAFIATTLVGLYPIARQALRLIKSGSYFAIETLMSVAAIGALFIGATAEAAMVLLLFLIGERLEGWAASRARQGVSALMALKPETATRLRKGEREEVAINSLRPGDVIEVAAGGRLPADGKLLSPFASFDESALTGESIPVERATGDKVPAGATSVDRLVTLEVLSEPGASAIDRILKLIEEAEERRAPIERFIDRFSRIYTPAIMAVALLVTLVPPLLFAASWQEWIYKGLTLLLIGCPCALVISTPAAITSGLAAAARRGALIKGGAALEQLGRVTQVAFDKTGTLTVGKPRVTAIHPATGISESELLTLAAAVEQGATHPLAQAIVREAQVAELAIPTAESQRALVGSGIEAQVNGERVLICAAGKHPADAFTGLINELESAGQTVVLVVRNDDVLGVIALQDTLRADAATAISELNALGVKGVILTGDNPRAAAAIAGELGLEFKAGLLPEDKVKAVTELNQHAPLAMVGDGINDAPAMKAAAIGIAMGSGTDVALETADAALTHNHLRGLVQMIELARATHANIRQNITIALGLKGIFLVTTLLGMTGLWLAVLADTGATVLVTANALRLLRRR”, the “total protein half-life in vivo” value came out at 4.91 ± 0.22 h under setting [1]; 4.33 ± 0.16 h under setting [4]; 4.07 ± 0.092 h under setting [11]; 5.05 ± 0.95 h under setting [5]; 4.331 ± 0.021 h under setting [6]; 2.62 ± 0.26 h under setting [7]. The “total protein half-life in vivo” value by setting is: under setting [2], 4.55 ± 0.4 h; under setting [3], 6.13 ± 1.8 h; under setting [8], 3.874 ± 0.016 h; under setting [9], 7.59 ± 0.2 h; under setting [12], 4.2 ± 0.081 h; under setting [10], 7.64 ± 0.21 h.

For the origin of these results see the supplement of paper PMC11246515.
